Measured values as given in the supplement of paper PMC11865577.

system: TO-N3 (biotin conjugate); experiment: pull-down binding Z-score (relative to library population); higher = stronger binding; conditions: RNA library: Library-2
Procedure, shortened: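 To score binding, a beads-only signal was subtracted, barcoded replicate probes were averaged with the highest and lowest dropped, and the value was converted to a Z-score using the library mean and standard deviation. The input was 1 μg of Cy5- or Cy3-end-labelled RNA library, heat-folded in phosphate/NaCl/KCl buffer and mixed for 60 min at 25 °C with streptavidin beads carrying 100 pmol of biotin-conjugated small molecule. Bound RNA was eluted in hot SDS and hybridised to a DNA barcode microarray at 55.5 °C for 20 h.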

Compared with CUAAUAACACUAAAGGUUCAUUGCCUAUUAAUGUUAUAG, “CUACAAAGCAACCAUGAUCUGUAUUGUCAAGUCCAUGGUAAUGCACAUGUAG” is lower in “pull-down binding Z-score” value: -0.0515 for the first, -0.227 for the second.

First: CUACACUAGUGCCACAAGAGCACUAUGUUAG
Second: CUAGGUUUUUCUAUGUACUUGG
The “pull-down binding Z-score” value of the first is lower: -0.127 for the first, 0.825 for the second.

First: CUAGUUGUGAUGCAAUCAUGACUAG
Second: CUAUACAUUCUUUAAGAGUUUGUGUAG
The “pull-down binding Z-score” value of the first is lower: -0.883 for the first, -0.583 for the second.

Compared with “CUAUACUGUUACUAGAUCAGGCAUUAGUGUCUGAUGUUGGUGAUAGUGCGG”, “CUAUAGUAGCUGGUGGUAUUGUAGCUAUCGUAG [SHAPE_invitro_SARS-CoV-2_Motif_182]” is higher in “pull-down binding Z-score” value: -0.939 for the first, 0.874 for the second.

First: CUAUCAGGCCGGUAG [DMSMaPseq_invitro_SARS-CoV-2_Motif_406]
Second: CUAUUCAAACAAUUGUUGAGGUUCAACCUCAAUUAGAGAUGGAACUUACACCAGUUGUUCAGACUAUUGAAGUGAAUAGUUUUAG [SHAPE_invivo_SARS-CoV-2_Multi_36_ComplexLevel_1]
The “pull-down binding Z-score” value of the first is lower: -0.672 for the first, -0.421 for the second.

First: CUCAAACCCGUCCUUGAUUGGCUUGAAGAGAAGUUUAAGGAAGGUGUAGAG [DMSMaPseq_invitro_SARS-CoV-2_Motif_41]
Second: CUCAGAGUAGAAAUUUACAAGAAUUUAAACCCAGGAG [DMSMaPseq_invitro_SARS-CoV-2_Motif_359]
The “pull-down binding Z-score” value of the first is higher: -0.455 for the first, -0.463 for the second.

First: CUCAGUCCAAGAUGGUAUUUCUACUACCUAGGAACUGGG [SHAPE_invivo_SARS-CoV-2_Motif_544]
Second: CUCCAAAAAGAG
The “pull-down binding Z-score” value of the first is higher: -0.646 for the first, -1.21 for the second.

Going from “CUCCAGCACGGAG [IAV_invivo_PB2_1_Motif_21+IAV_invivo_PB2_1_Motif_21]” to “CUCCAGGAGGGG [IAV_invivo_PB2_1_Motif_10+IAV_invivo_PB2_1_Motif_10]”, the “pull-down binding Z-score” value rises from -0.877 to -0.668.

Going from “CUCCUUUGAUGGUUGCAUACAUGUUGGAG [IAV_invivo_PB2_1_Motif_8+IAV_invivo_PB2_1_Motif_8]” to “CUCGUCUAUCUUCUGCAGGCUGCUUACGGUUUCGUCCGUGUUGCAGCCGAUCAUCAGCACAUCUAGGUUUCGUCCGGGUGUGACCGAAAGGUAAGAUGGAGAG”, the “pull-down binding Z-score” value rises from -0.689 to -0.000928.

Going from “CUCGUCUAUCUUCUGCAGGCUGCUUACGGUUUCGUCCGUGUUGCAGCCGAUCAUCAGCACAUCUAGGUUUUGUCCGGGUGUGACCGAAAGGUAAGAUGGAGAG” to “CUCUAUGACAAACUUGUUUCAAGCUUUUUGGAAAUGAAGAGUGAAAAGCAAGUUGAACAAAAGAUCGCUGAG”, the “pull-down binding Z-score” value rises from -0.836 to -0.314.

First: CUCUCAUCGAUCUCCAAGAACUUGGAAAGUAUGAGCAG [SHAPE_invitro_SARS-CoV-2_Motif_456]
Second: CUCUCAUUUUGUUAACUUAGACAACCUGAGAG
The “pull-down binding Z-score” value of the first is higher: -0.095 for the first, -1.13 for the second.

Compared with “CUCUGGAACACUUUUACAAGACUUCAGAG [SHAPE_invivo_SARS-CoV-2_Motif_367]”, “CUCUUGAGUGCAUUAAAGACCUUCUAGCACGUGCUGGUAAAGCUUCAUGCACUUUGUCCGAACAACUGGACUUUAUUGACACUAAGAG [SHAPE_invitro_SARS-CoV-2_Multi_69_ComplexLevel_1]” is lower in “pull-down binding Z-score” value: -0.338 for the first, -0.515 for the second.

Compared with “CUCUUGUAAUGUAAACAGAUUUAAUGUUGCUAUUACCAGAG”, “CUGAAAAAUGGGAAUCUGGAGUAAAAGACUGUGUUGUAUUACACAGUUACUUCACUUCAGACUAUUACCAG” is lower in “pull-down binding Z-score” value: 0.0725 for the first, -0.329 for the second.

Compared with CUGACAAAGUUUUCAG, “CUGACUUAACAAAGCCUUACAUUAAGUGGGAUUUGUUAAAAUAUGACUUCACGGAAGAGAGGUUAAAACUCUUUGACCGUUAUUUUAAAUAUUGG” is lower in “pull-down binding Z-score” value: 0.341 for the first, -0.517 for the second.

Going from “CUGAUCCUAGUUUUCUGGGUAG [SHAPE_invivo_SARS-CoV-2_Motif_108]” to “CUGCACUGUUAGCGGGUACAAUCACUUCUGGUUGGACCUUUGGUGCAG [SHAPE_invitro_SARS-CoV-2_Motif_437]”, the “pull-down binding Z-score” value falls from -0.0828 to -0.574.

Compared with “CUGCAGAUGCAG [IAV_invivo_HA_4_Motif_2+IAV_invivo_HA_4_Motif_2]”, CUGCCUAUAUGGAAG is lower in “pull-down binding Z-score” value: -0.419 for the first, -0.773 for the second.

First: CUGCUUUUGGCUUAGUUGCAG
Second: CUGGAAUUGCCGUUUUAG [SHAPE_invivo_SARS-CoV-2_Motif_210]
The “pull-down binding Z-score” value of the first is higher: 0.125 for the first, -0.0237 for the second.

Going from “CUGGACUCUAAAUAGAAACCAACCUGCUGCAACAGCAUUGGCCAACACAAUAGAAGUGUUCAGAUCAAAUGGCCUCACGGCCAAUGAGUCUGG” to “CUGGCAGUAACCAG [SHAPE_invivo_SARS-CoV-2_Motif_538]”, the “pull-down binding Z-score” value falls from -0.231 to -0.233.

First: CUGGGAAACUGUUAAAAUUCAGUGGUCCCAG [IAV_invivo_PB2_1_Motif_27+IAV_invivo_PB2_1_Motif_27]
Second: CUGGGCCAUAAGGACCAG [IAV_invivo_NP_5_Motif_20+IAV_invivo_NP_5_Motif_20]
The “pull-down binding Z-score” value of the first is lower: -0.972 for the first, -0.418 for the second.

First: CUGGGGGCAAUCAGUUUCUGG [IAV_invivo_HA_4_Motif_20+IAV_invivo_HA_4_Motif_20]
Second: CUGGUCCAUGCUCAUACCCAAGCAGAAAGUGGCAGGCCCUCUUUGUAUCAGAAUGGACCAG [IAV_invivo_NS1_NEP_8_Motif_8+IAV_invivo_NS1_NEP_8_Motif_8]
The “pull-down binding Z-score” value of the first is higher: 0.946 for the first, -0.453 for the second.

Compared with “CUGUAGCUGCAUUUCACCAAGAAUGUAGUUUACAG [DMSMaPseq_invitro_SARS-CoV-2_Motif_500]”, CUGUCACUAAG is lower in “pull-down binding Z-score” value: 0.121 for the first, -0.36 for the second.

Going from “CUGUCAUGGAAGCAAGUACUGGCAG [IAV_invivo_PA_3_Motif_16+IAV_invivo_PA_3_Motif_16]” to “CUGUCCAAGACAUGUGAUCUGCACCUCUGAAGACAUGCUUAACCCUAAUUAUGAAGAUUUACUCAUUCGUAAGUCUAAUCAUAAUUUCUUGGUACAG”, the “pull-down binding Z-score” value falls from 0.596 to -0.347.

First: CUGUGGGUUUUACACUUAAAAACACAG [DMSMaPseq_invitro_SARS-CoV-2_Motif_239]
Second: CUGUUAAUGUAGCAUUUGAGCUUUGGGCUAAGCGCAACAUUAAACCAG
The “pull-down binding Z-score” value of the first is lower: -0.32 for the first, 0.38 for the second.

First: CUGUUCCACCAUUGAAGAGCUCAG [IAV_invivo_PB1_2_Motif_38+IAV_invivo_PB1_2_Motif_38]
Second: CUGUUGAUUCAUCACAG
The “pull-down binding Z-score” value of the first is lower: 0.134 for the first, 1.14 for the second.

Going from “CUGUUGGUACCAAUUUACCUUUACAGCUAGGUUUUUCUACAGGUGUUAACCUAGUUGCUGUACCUACAG” to CUGUUUGGAUGACAG, the “pull-down binding Z-score” value rises from -1.16 to -0.871.

Compared with CUGUUUUUCAG, “CUUACUGACAAUGUAUACAUUAAAAAUGCAGACAUUGUGGAAG [DMSMaPseq_invitro_SARS-CoV-2_Motif_59]” is higher in “pull-down binding Z-score” value: -1.23 for the first, -0.328 for the second.

First: CUUAGCUGUCUUUGAUAAAAAUCUCUAUGACAAACUUGUUUCAAGCUUUUUGGAAAUGAAGAGUGAAAAGCAAGUUGAACAAAAGAUCGCUGAG [SHAPE_invivo_SARS-CoV-2_Motif_73]
Second: CUUAGGGACAACCUUGAACCUGGG [IAV_invivo_PA_3_Motif_29+IAV_invivo_PA_3_Motif_29]
The “pull-down binding Z-score” value of the first is higher: 0.0191 for the first, -0.557 for the second.

Compared with “CUUAGUUUUAAG [DMSMaPseq_invitro_SARS-CoV-2_Motif_263]”, “CUUAUGUUGGUUGCCAUAACAAGUGUGCCUAUUGGGUUCCACGUGCUAGCGCUAACAUAGG” is lower in “pull-down binding Z-score” value: -1.02 for the first, -1.11 for the second.

Going from “CUUCACAUAUGUAUUGUUCUUUUUACCCUCCAGAUGAGGAUGAAGAAGAAGGUGAUUGUGAAG” to “CUUCAUUAAAAGAAUUACUGCAAAAUGGUAUGAAUGGACGUACCAUAUUGGGUAGUGCUUUAUUAGAAG”, the “pull-down binding Z-score” value falls from -0.606 to -0.621.

First: CUUCCGAGUCAUAGGAAACUAUGACAUACAGAUCAACAGGGGCUCGCUUGAGCCCCCCAGCCAGUCGGAGG [mMTR1]
Second: CUUCUGCUGCUCUUCAACCUGAAGAAGAGCAAGAAGAAG
The “pull-down binding Z-score” value of the first is lower: -1.09 for the first, -0.368 for the second.

Compared with “CUUCUUGAAAUACUCCAAAAAGAGAAAGUCAACAUCAAUAUUGUUGGUGACUUUAAACUUAAUGAAG”, “CUUCUUGCAUGUGACUUAUGUCCCUGCACAAGAAAAG [SHAPE_invitro_SARS-CoV-2_Motif_449]” is lower in “pull-down binding Z-score” value: -0.0282 for the first, -0.309 for the second.

Going from “CUUGAACAAUGGAACCUAGUAAUAGGUUUCCUAUUCCUUACAUGGAUUUGUCUUCUACAAUUUGCCUAUGCCAACAGG” to “CUUGAACAAUGGAACCUAGUAAUAGGUUUCCUAUUCCUUACAUGGAUUUGUCUUCUACAAUUUGCCUAUGCCAACAGGAAUAGGUUUUUGUAUAUAAUUAAG”, the “pull-down binding Z-score” value falls from -0.466 to -1.12.

In the case of CUUGAUGAUUUUGUUGAAAUAAUAAAAUCCCAAG, the “pull-down binding Z-score” value is reported as -0.636.
